Measured values reported in US20210054097A1 (Novo Nordisk, published 2021).
Ends that are not written are not given here.

T1: FX activation peptide 12-mer LDFNQTQPERGD (human)
T1 peptide: LDFNQTQPERGD-biotin

T2: FX activation peptide 12-mer ADLDPTENPFDL (human)
T2 peptide: ADLDPTENPFDL-biotin

T3: FX activation peptide 12-mer WKPYDAADLDPT (human)
T3 peptide: WKPYDAADLDPT-biotin

T4: FX activation peptide 12-mer SSGEAPDSITWK (human)
T4 peptide: SSGEAPDSITWK-biotin

T5: FX activation peptide 12-mer EAPDSITWKPYD (human)
T5 peptide: EAPDSITWKPYD-biotin

T6: FX activation peptide 12-mer VAQATSSSGEAP (human)
T6 peptide: VAQATSSSGEAP-biotin

T7: FX activation peptide 12-mer ATSSSGEAPDSI (human)
T7 peptide: ATSSSGEAPDSI-biotin

T8: FX activation peptide 12-mer KPYDAADLDPTE (human)
T8 peptide: KPYDAADLDPTE-biotin

T9: FX activation peptide 12-mer GEAPDSITWKPY (human)
T9 peptide: GEAPDSITWKPY-biotin

T10: FX activation peptide 12-mer FNQTQPERGDNN (human)
T10 peptide: FNQTQPERGDNN-biotin

T11: FX activation peptide 12-mer ITWKPYDAADLD (human)
T11 peptide: ITWKPYDAADLD-biotin

T12: FX activation peptide 12-mer AQATSSSGEAPD (human)
T12 peptide: AQATSSSGEAPD-biotin

T13: FX activation peptide 12-mer AADLDPTENPFD (human)
T13 peptide: AADLDPTENPFD-biotin

T14: FX activation peptide 12-mer PYDAADLDPTEN (human)
T14 peptide: PYDAADLDPTEN-biotin

T15: FX activation peptide 12-mer PDSITWKPYDAA (human)
T15 peptide: PDSITWKPYDAA-biotin

T16: FX activation peptide 12-mer LDPTENPFDLLD (human)
T16 peptide: LDPTENPFDLLD-biotin

T17: FX activation peptide 12-mer SITWKPYDAADL (human)
T17 peptide: SITWKPYDAADL-biotin

T18: FX activation peptide 12-mer NQTQPERGDNNL (human)
T18 peptide: NQTQPERGDNNL-biotin

T19: FX activation peptide 12-mer DLLDFNQTQPER (human)
T19 peptide: DLLDFNQTQPER-biotin

T20: FX activation peptide 12-mer SVAQATSSSGEA (human)
T20 peptide: SVAQATSSSGEA-biotin

T21: FX activation peptide 12-mer SSSGEAPDSITW (human)
T21 peptide: SSSGEAPDSITW-biotin

T22: FX activation peptide 12-mer DAADLDPTENPF (human)
T22 peptide: DAADLDPTENPF-biotin

T23: FX activation peptide 12-mer APDSITWKPYDA (human)
T23 peptide: APDSITWKPYDA-biotin

T24: FX activation peptide 12-mer TSSSGEAPDSIT (human)
T24 peptide: TSSSGEAPDSIT-biotin

T25: FX activation peptide 12-mer TWKPYDAADLDP (human)
T25 peptide: TWKPYDAADLDP-biotin

T26: FX activation peptide 12-mer TQPERGDNNLTR (human)
T26 peptide: TQPERGDNNLTR-biotin

T27: FX activation peptide 12-mer DSITWKPYDAAD (human)
T27 peptide: DSITWKPYDAAD-biotin

T28: FX activation peptide 12-mer DFNQTQPERGDN (human)
T28 peptide: DFNQTQPERGDN-biotin

T29: FX activation peptide 12-mer NPFDLLDFNQTQ (human)
T29 peptide: NPFDLLDFNQTQ-biotin

T30: FX activation peptide 12-mer TENPFDLLDFNQ (human)
T30 peptide: TENPFDLLDFNQ-biotin

B1: Nb 701C06 (VHH)
VHH: EVQLVESGGGVVQPGGSLRLSCAASGRTFSTYAMGWFRQAPGKEREFVAAISRRGGRTYYADSVKGRFTISRDNSKNTVYLQMNSLRPEDTALYYCAADATARDGLLDYWGQGTLVTVSS
notes: monovalent Nanobody; not shown: C-terminal FLAG3 and HIS6 tag
B2: Nb 729A04 (VHH)
VHH: EVQLVESGGGVVQPGGSLRLSCAASGFTFSDYAMSWVRQAPGKGLEWVSGITSGGGRTYYADSVKGRFTISRDNSKNTLYLQMNSLRPEDTALYYCAAVRTLGLRGSYDYWGQGTLVTVSS
notes: as for B1

Columns and labels:
[1] = target: T1, FX activation peptide 12-mer …; experiment: peptide ELISA
Procedure: (§1) The peptides were C-terminally conjugated to biotin and 50 μL of 1 μg/mL peptide solution was used for immobilization in discrete wells of the microtiter plate which was pre-coated with 1 μg/mL streptavidin. Each well was washed with washing buffer (10 mM Tris, 150 mM NaCl, 2.5 mM CaCl₂, 0.05% Tween 20, pH 8.60) followed by addition of 50 μL of 2 μg/mL FLAG-tagged anti-FX Nanobody® or IgG antibody to be tested. After 1 hour non-bound Nanobody®/antibody was washed off using washing buffer.
(§2) Bound anti-FX activation peptide ligand was detected by first binding a HRP-labelled secondary antibody (for FLAG-tagged Nanobodies: Anti-FLAG mAb M2-Peroxidase (HRP) (Sigma Aldrich, US), for antibody: Fcγ Fragment Specific Peroxidase AffiniPure F(ab′)₂ Fragment Goat Anti-Human IgG (Jackson ImmunoResearch Laboratories, Inc., US), or Peroxidase AffiniPure Goat Anti-Mouse IgG (Jackson ImmunoResearch Laboratories, Inc., US)) for 1 hour, and then adding 100 μL TMB-1 ELISA substrate (Kem-En-Tec Diagnostics, Denmark).

[2] = target: T2, FX activation peptide 12-mer …; experiment: peptide ELISA
Procedure: as §1, §2

[3] = target: T3, FX activation peptide 12-mer …; experiment: peptide ELISA
Procedure: as §1, §2

[4] = target: T4, FX activation peptide 12-mer …; experiment: peptide ELISA
Procedure: as §1, §2

[5] = target: T5, FX activation peptide 12-mer …; experiment: peptide ELISA
Procedure: as §1, §2

[6] = target: T6, FX activation peptide 12-mer …; experiment: peptide ELISA
Procedure: as §1, §2

[7] = target: T7, FX activation peptide 12-mer …; experiment: peptide ELISA
Procedure: as §1, §2

[8] = target: T8, FX activation peptide 12-mer …; experiment: peptide ELISA
Procedure: as §1, §2

[9] = target: T9, FX activation peptide 12-mer …; experiment: peptide ELISA
Procedure: as §1, §2

[10] = target: T10, FX activation peptide 12-mer …; experiment: peptide ELISA
Procedure: as §1, §2

[11] = target: T11, FX activation peptide 12-mer …; experiment: peptide ELISA
Procedure: as §1, §2

[12] = target: T12, FX activation peptide 12-mer …; experiment: peptide ELISA
Procedure: as §1, §2

[13] = target: T13, FX activation peptide 12-mer …; experiment: peptide ELISA
Procedure: as §1, §2

[14] = target: T14, FX activation peptide 12-mer …; experiment: peptide ELISA
Procedure: as §1, §2

[15] = target: T15, FX activation peptide 12-mer …; experiment: peptide ELISA
Procedure: as §1, §2

[16] = target: T16, FX activation peptide 12-mer …; experiment: peptide ELISA
Procedure: as §1, §2

[17] = target: T17, FX activation peptide 12-mer …; experiment: peptide ELISA
Procedure: as §1, §2

[18] = target: T18, FX activation peptide 12-mer …; experiment: peptide ELISA
Procedure: as §1, §2

[19] = target: T19, FX activation peptide 12-mer …; experiment: peptide ELISA
Procedure: as §1, §2

[20] = target: T20, FX activation peptide 12-mer …; experiment: peptide ELISA
Procedure: as §1, §2

[21] = target: T21, FX activation peptide 12-mer …; experiment: peptide ELISA
Procedure: as §1, §2

[22] = target: T22, FX activation peptide 12-mer …; experiment: peptide ELISA
Procedure: as §1, §2

[23] = target: T23, FX activation peptide 12-mer …; experiment: peptide ELISA
Procedure: as §1, §2

[24] = target: T24, FX activation peptide 12-mer …; experiment: peptide ELISA
Procedure: as §1, §2

[25] = target: T25, FX activation peptide 12-mer …; experiment: peptide ELISA
Procedure: as §1, §2

[26] = target: T26, FX activation peptide 12-mer …; experiment: peptide ELISA
Procedure: as §1, §2

[27] = target: T27, FX activation peptide 12-mer …; experiment: peptide ELISA
Procedure: as §1, §2

[28] = target: T28, FX activation peptide 12-mer …; experiment: peptide ELISA
Procedure: as §1, §2

[29] = target: human plasma-derived Factor X zymogen (human, UniProt P00742 41-179; P00742 183-488); experiment: cell-based or functional assay
Chain of human plasma-derived Factor X zymogen (P00742 41-179, chain 1 of 2): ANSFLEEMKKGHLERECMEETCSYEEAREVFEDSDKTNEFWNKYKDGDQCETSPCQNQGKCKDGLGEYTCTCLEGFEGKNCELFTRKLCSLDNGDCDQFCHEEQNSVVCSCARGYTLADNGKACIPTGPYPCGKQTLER
Chain of human plasma-derived Factor X zymogen (P00742 183-488, chain 2 of 2): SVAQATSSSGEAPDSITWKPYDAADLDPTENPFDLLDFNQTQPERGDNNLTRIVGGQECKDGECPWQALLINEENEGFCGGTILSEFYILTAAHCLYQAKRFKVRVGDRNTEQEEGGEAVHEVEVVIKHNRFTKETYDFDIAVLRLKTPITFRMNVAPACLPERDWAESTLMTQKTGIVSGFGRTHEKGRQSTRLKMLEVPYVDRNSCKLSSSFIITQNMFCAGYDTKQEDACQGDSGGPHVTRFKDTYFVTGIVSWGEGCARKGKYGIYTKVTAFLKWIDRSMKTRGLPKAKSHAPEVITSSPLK

[30] = target: T29, FX activation peptide 12-mer …; experiment: peptide ELISA
Procedure: as §1, §2

[31] = target: T30, FX activation peptide 12-mer …; experiment: peptide ELISA
Procedure: as §1, §2

Row | Binder | ELISA signal relative to background [1] | ELISA signal relative to background [2] | ELISA signal relative to background [3] | ELISA signal relative to background [4] | ELISA signal relative to background [5] | ELISA signal relative to background [6] | ELISA signal relative to background [7] | ELISA signal relative to background [8] | ELISA signal relative to background [9] | ELISA signal relative to background [10] | ELISA signal relative to background [11] | ELISA signal relative to background [12] | ELISA signal relative to background [13] | ELISA signal relative to background [14] | ELISA signal relative to background [15] | ELISA signal relative to background [17] | ELISA signal relative to background [18] | ELISA signal relative to background [19] | ELISA signal relative to background [20] | ELISA signal relative to background [21] | also measured
1 | B1 | 0.93 | 0.87 | 0.99 | 0.89 | 0.89 | 0.93 | 0.91 | 0.9 | 0.9 | 0.88 | 1.03 | 0.91 | 0.82 | 0.82 | 0.92 | 0.94 | 0.85 | 1.13 | 0.92 | 0.9 | ELISA signal relative to background [16]: 0.94; ELISA signal relative to background [22]: 0.85; ELISA signal relative to background [23]: 0.96; ELISA signal relative to background [24]: 0.87; ELISA signal relative to background [25]: 1; ELISA signal relative to background [26]: 0.97; ELISA signal relative to background [27]: 0.93; ELISA signal relative to background [28]: 0.87; Increase in FX activation (fold) [29]: 26 fold
2 | B2 | 0.98 | 0.98 | 1.2 | 0.96 | 1.01 | 0.99 | 1.24 | 1.33 | 1.05 | 1.05 | 1.28 | 1.08 | 1.05 | 1.06 | 0.95 | 1.13 | 1.13 | 1.12 | 0.92 | 1.24 | ELISA signal relative to background [30]: 8.27; ELISA signal relative to background [22]: 1.1; ELISA signal relative to background [23]: 1.04; ELISA signal relative to background [24]: 1.12; ELISA signal relative to background [25]: 0.99; ELISA signal relative to background [31]: 9.12; ELISA signal relative to background [26]: 1.09; ELISA signal relative to background [27]: 1.05; ELISA signal relative to background [28]: 0.97; Increase in FX activation (fold) [29]: 4.1 fold
